Consider four molecules from article PMC9407527 (Proceedings of the National Academy of Sciences of the …, 2022).

Square brackets hold non-standard residues; d marks the D form. Ends that are not written are not given here. * marks the point of attachment. MTSL = spin label, CC1(C)C=C(CS*)C(C)(C)N1[O]; pS = N[C@@H](COP(=O)(O)O)C(=O)O

In experiment [1] the target is T1, fluorescent-tagged His-tagged occludin 413–522 (human, UniProt Q16625 413-522, fluorescent label from the MonolithNT His-Tag Labeling Kit (NanoTemper)).
T1 sequence (looked up): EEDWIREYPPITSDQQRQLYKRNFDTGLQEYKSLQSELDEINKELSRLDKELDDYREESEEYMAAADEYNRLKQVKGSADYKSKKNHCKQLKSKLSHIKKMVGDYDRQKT
The experiment can be described thus: MST.

The target of experiment [2] is T2, occludin 413–522 α-helical bundle (NMR construct with the N-terminal extension GPLGS) (human, UniProt Q16625 413-522).
T2 sequence: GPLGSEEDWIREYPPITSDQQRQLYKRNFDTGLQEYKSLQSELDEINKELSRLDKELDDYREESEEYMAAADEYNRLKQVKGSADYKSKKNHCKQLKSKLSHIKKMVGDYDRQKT
The experiment can be described thus: NMR paramagnetic relaxation enhancement.

Usually Kd stands for the concentration at which binding is half-saturated. Low values mean a tighter complex, high ones a looser complex. In experiment [1], AKGRAGRSKRTEQDHYETDYTTGGE[pS]CDEL [synthetic occludin 383–412 peptide phosphorylated at S408] showed a Kd of 37 ± 15 µM.
Same read-out and setting: as for AKGRAGRSKRTEQDHYETDYTTGGESCDEL [synthetic occludin 383–412 peptide, nonphosphorylated], the figure is 175 ± 27 µM.
Take AKGRAGRSKRTEQDHYETDYTTGGEDC(MTSL)DEL (peptide, UniProt Q16625 383-412, looked up) [occludin 383–412^S408D unstructured region peptide, MTSL-labelled at C409]: in experiment [2], the binding result is given as “binds”.
AKGRAGRSKRTEQDHYETDYTTGGEAC(MTSL)DEL (peptide, UniProt Q16625 383-412, looked up) [occludin 383–412^S408A unstructured region peptide, MTSL-labelled at C409]: the binding result in experiment [2] is reported as “binds”.
